Data on 19 variants can be found in the RNAGym collection of RNA variant scans (doi:10.1073/pnas.2313332121).

Variants at the floor of the assay were thinned out.

The chains are these.
B1: TPR 5TU (parent)
chain: GGAUCUUCUCGAUCUAACAAAAAAGACAAAUCUGCCACAAAGCUUGAGAGCAUCUUCGGAUGCAGAGGCGGCAGCCUUCGGUGGCGCGAUAGCGCCAACGUUCUCAACUAUGACACGCAAAACGCGUGCUCCGUUGAAUGGAGUUUAUCAUG

This series covers variants of B1. Put plainly: polymerase ribozyme fitness, log enrichment relative to wild type (log ratio); higher = more active; in vitro selection for triplet polymerase activity. Put shortly: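 PCR was used to build mutant libraries for each subunit of a heterodimeric triplet polymerase ribozyme, which were then transcribed. A single in vitro selection round, in triplicate, used a frozen incubation at −7 °C and recovered extended constructs by gel excision, streptavidin beads and RT-PCR. Fitness is the logarithm of genotype enrichment relative to wild-type enrichment, averaged over replicates with inverse-variance weights. The logarithm is base 2, and after Illumina sequencing only genotypes with ≥10 input reads and ≥1 read per output were kept.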
As to GGAUCUUCUCGAUCUAACAAGAAAGACAAAUCUGCCACAAAGCUUGAGAGCAUCUUCGGAUGCAGAGGCGGCAGCCUUCGGUGGCGCGAUAGCGCCAACGUUCUCAACUAUGACACGCAAAACGCGUGCUCCGUUGAAUGGAGAUUAUCAUG [A21G U144A], the “polymerase ribozyme fitness (log ratio)” value turned out to be 0.357.
As for GGAUCUUCUCGAUCUAACAAGAAAGACAAAUCUGCCACAAAGCUUGAGAGCAUCUUCGGAUGCAGAGGCGGCAGCCUUCGGUCGCGCGACAGCGCCAACGUUCUCAACUAUGACACGCAAAACGCGUGCUCCGUUGAAUGGAGUUAAUCCUG [A21G G83C U90C U146A A150C], the figure is at most -4.2; as for GGAUCUUCUCGAUCUAACAAGAAAGACAAAUCUGCCACAAAACUUGAGACCAUCUUCGGAUGCAGAGGCGGCAGCCUUCGGUGGCGCGAUAGGGCCAACGUUCUCAACUAUGACACGCAAAACGCGUGCUCCGUUUAAUGGAGUUUAUCAUG [A21G G42A G50C C93G G136U], at most -4.2.
With GGAUCUUCUCGAUCUAACAAUAAAGACAAAUCUGCCACCAAGCUUGAGAGCAUCUUCGGAUGCAGAGGCGGCAGCCUUCGGUGGCGCGACAGCGUCUACGUUCUCAACUAUGACACGCAAAACGCGUGCUCCGUUGAAUGGAGUUUAUCAUG [A21U A39C U90C C95U A97U], the “polymerase ribozyme fitness (log ratio)” value is at most -4.2.
Turning to GGAUCUUCUCGAUCUAACAAGAAAGACAAAUCUGCCACAAAGCUUGAGAGCAUCUUCAGAUGCAGAGGCGGCAGCCUUCGGUGGCGCGAUAGCGCCAACGUUCUCAACUAUGACACGCAAAUCGCGUGCUCCGUUGAAUGGAGUGUAUCAUG [A21G G58A A122U U145G], the “polymerase ribozyme fitness (log ratio)” value turned out to be 0.687.
As to GGAUCUUCUCGAUCUAACAAGAAAGACAAAUCUGCCACAAAGCUUCAGAGCAUCUUCGGAUGCAGAGGCGGCAGCCUUCGGGGGCGCUAUAGCGGCACCGUUCUCAACUAUGACACGCAAAACGCGUGCUCCGUUGAAUGGAGUUUAUCAUG [A21G G46C U82G G88U C95G A98C], the “polymerase ribozyme fitness (log ratio)” value is at most -4.2.
Next, GGAUCUUCUCGAUCUAACAAGAAAGACAAAUCUGCCACAAAGCUUGAGAUCAUCUUCGGAUGCAGAGGCGGCAGCCUUCGGUGGCGCGAUAUCGCCAACGUUCUCAACUAUGACACGCAAAACGCGUGCUCCGUUGAAUGGAGUUUCUCAUG [A21G G50U G92U A147C]: -0.875.
As for GGAUCUUCUCGAUCUAACAAUACAGACAAAUCUGCCAAAAAGCUUGAGAGCAUCUUCGGAUGCAGAGGCGGCAGCCUUCGGUGGCGCGAUAGCGCCAAGGUUCUCAACUAUGACACGCAAAACGCGUGCUCCGUUGAAUGGCGUUUAUCAUG [A21U A23C C38A C99G A142C], the “polymerase ribozyme fitness (log ratio)” value is at most -4.2.
As for GGAUCUUCUCGAUCUAACAAGAAAGACAAAUCUGCCACAAAACUUGAGCGCAUCUUCGGAUGCAGUGGCGGCAGCCUUCGGCGGCGUGAUAGCGCCAACGUUCUCAACUAUGACACGCAAAACGCGUGCUCCGUGGAAUGGAGUAUAACAUG [A21G G42A A49C A66U U82C C87U U135G U145A U148A], the figure is at most -4.2; as for GGAUCUUCUCGAUCUAACAAUAAAGACAAAUCUGCCACAAAGCUUGCGAGCCUCUUCGGGUGCAGAGGCGGCAGCCUUCGGUGGGGAGAUAGCGCCAACGUUCUCAACUAUGACACGCAACACGCGUGCUCCGUUGAAUGGAGUUUAUCAUG [A21U A47C A52C A60G C85G C87A A121C], at most -4.2.
GGAUCUUCUCGAUCUAACAAUAACGUCAAAUCUGCCACAAAGCGUGAGAGCAUCUUCGGAUGCAGAGGCGGCAGCCUUCGGUGGCGCGUUGGCGCCAACGUUCUCAACUAUGACACGCAAAACGCGUUCUCCGUUGAAUCGAGUAUAUCAUG [A21U A24C A26U U44G A89U A91G G128U G140C U145A]: the “polymerase ribozyme fitness (log ratio)” value was at most -4.2.
Take GGAUCUUCUCGAUCUAACAAUAAAGACAAAUCUGCCACAAAGCUUGGGAGCAUUUUCGGAUGCAGAGGCGGCAGCCUUCGCUGGCGCGAUAACGACAAUGUUCUCAACUAUGACACGCAAAACGCGUGCUCCGUUGAAUGGAGUUUAUCAUG [A21U A47G C54U G81C G92A C95A C99U]: the “polymerase ribozyme fitness (log ratio)” value is -3.94.
Take GGAUCUUCUCGAUCUAACAAUAAAGGCAAAUCUGCCACAAAGCUUGAGAGCAUCUUCGGAUGCAGAGGCGGCAGCCUUCGGUGGCUCGAUAGCGCCAACGUUCUCAACUAUGACACGUAAAACGCGUGCUCCGUUGAAUGGAGUUUAUCAUG [A21U A26G G86U C118U]: the “polymerase ribozyme fitness (log ratio)” value is at most -4.2.
As for GGAUCUUCUCGAUCUAACAAUAAAGACACAUCUGCCACAAAGCUUGAGAGCAUCUUCGGAUGCAGAGGCGGCAGCCUUCGGUGGCGCGAUAGCGACAACGGUCUCAACUAUGACACGCAAAACGCCUGCUCCGUGGAAUGGAUUUUAUCAUG [A21U A29C C95A U101G G126C U135G G143U], the figure is at most -4.2; as for GGAUCUUCUCGAUCUAACAAGAAAGACAAAUCUGCCACAAAGCUUGAGAGCAUCUUCGGAUGCAGAGGCGGCAGCCUUCGGUGCCGCGAUAGCGCCAACGUUCUCAACUAUGUCACGCAAAACGCGUGCUCCGUUGAAUGGAGUUUAUCAUG [A21G G84C A113U], -4.09; as for GGAUCUUCUCGAUCUAACAAUAAAGACAAAUCUGCCCCAAAGCUUGAGGGCUUCUUCGGAUGCAGAGGCGGCAGCCUUCGGUGGCGCGAUCGCGCCAACGUUCUCAACUAUGACACGCAAAACGCGUGCUCCGUUGAAUGGAGUUUAUCAUG [A21U A37C A49G A52U A91C], at most -4.2.
Next, GGAUCUUCUCGAUCUAACAAUAAAGACAAUUCUGCCAGAAAGCUUGAGAGCAUCUUCGGAUGCAGAGGCGGCAGCCUUCGGUGGGGCGAUAGCGCCAACGUUCUCAACUAUAACACGCAAAACACGUGCUCCGUUGAAUGGAGUUUAUCAUG [A21U A30U C38G C85G G112A G124A]: at most -4.2; GGAUCUUCUCGAUCUAACAAGAAAGACAAAUCUGCCACAAAGCUUGAGAGCAUCUUCGGAUGCAGAGGCGGCAGCCUUCGGUGGCGCAACAGCGCCAACGUUCUCAACUAUGACACGCAAAACGCGCGCUCCGUGGAAUGGAGUUUAUUAUG [A21G G88A U90C U127C U135G C149U]: at most -4.2.
Next, GGAUCUUCUCGAUCUAACAAUAAAGACAUAUCUGCCACAAAGCUUGAGAGCAUCUUCGGAUGCAGUGGCGGCAGCAUUCGGUGGCGCGAUAGGGCCAACGUUCUCAACUAUGACACGCAAAACGCGUGCUCCGUUGAAUGGAGUUUAUCAUG [A21U A29U A66U C76A C93G]: at most -4.2.
